Measurements reported in patent publication US20220010021A1 (Sanofi, published 2022).
Where a chain is given by its changes, count along the chain named.

B1: 16H7 variant, light chain D52I (antibody, human IgG4 S228P, lambda, V domains shown)
VH: not shown
VL: SYVLTQPPSVSVAPGQTARITCGGNNIGSESVHWYQQKPGQAPVLVVYDDSIRPSGIPERFSGSNSGNTATLTISRVEAGDEADYYCQVWDGNSDHVVFGGGTKLTVLG
notes: IgG4 backbone
B2: 16H7 variant, light chain G24R (antibody, human IgG4 S228P, lambda, V domains shown)
VH: not shown
VL: B1 VL with G24R, I52D
notes: IgG4 backbone
B3: 16H7 variant, light chain G23C (antibody, human IgG4 S228P, lambda, V domains shown)
VH: not shown
VL: B1 VL with G23C, I52D
notes: IgG4 backbone
B4: 16H7 variant, light chain G23P (antibody, human IgG4 S228P, lambda, V domains shown)
VH: not shown
VL: B1 VL with G23P, I52D
notes: IgG4 backbone
B5: 16H7 variant, light chain G23D (antibody, human IgG4 S228P, lambda, V domains shown)
VH: not shown
VL: B1 VL with G23D, I52D
notes: IgG4 backbone
B6: 16H7 variant, light chain G24K (antibody, human IgG4 S228P, lambda, V domains shown)
VH: not shown
VL: B1 VL with G24K, I52D
notes: IgG4 backbone
B7: 16H7 variant, light chain G24C (antibody, human IgG4 S228P, lambda, V domains shown)
VH: not shown
VL: B1 VL with G24C, I52D
notes: IgG4 backbone
B8: 16H7 variant, light chain D52T (antibody, human IgG4 S228P, lambda, V domains shown)
VH: not shown
VL: B1 VL with I52T
notes: IgG4 backbone
B9: 16H7 variant, light chain G24F (antibody, human IgG4 S228P, lambda, V domains shown)
VH: not shown
VL: B1 VL with G24F, I52D
notes: IgG4 backbone
B10: 16H7 variant, light chain G23F (antibody, human IgG4 S228P, lambda, V domains shown)
VH: not shown
VL: B1 VL with G23F, I52D
notes: IgG4 backbone
B11: 16H7 variant, light chain G23A (antibody, human IgG4 S228P, lambda, V domains shown)
VH: not shown
VL: B1 VL with G23A, I52D
notes: IgG4 backbone
B12: 16H7 variant, light chain D52Y (antibody, human IgG4 S228P, lambda, V domains shown)
VH: not shown
VL: B1 VL with I52Y
notes: IgG4 backbone
B13: 16H7 variant, light chain G24L (antibody, human IgG4 S228P, lambda, V domains shown)
VH: not shown
VL: B1 VL with G24L, I52D
notes: IgG4 backbone
B14: 16H7 variant, light chain G23L (antibody, human IgG4 S228P, lambda, V domains shown)
VH: not shown
VL: B1 VL with G23L, I52D
notes: IgG4 backbone
B15: 16H7 variant, light chain D52V (antibody, human IgG4 S228P, lambda, V domains shown)
VH: not shown
VL: B1 VL with I52V
notes: IgG4 backbone
B16: 16H7 variant, light chain D52Q (antibody, human IgG4 S228P, lambda, V domains shown)
VH: not shown
VL: B1 VL with I52Q
notes: IgG4 backbone
B17: 16H7 variant, light chain G23V (antibody, human IgG4 S228P, lambda, V domains shown)
VH: not shown
VL: B1 VL with G23V, I52D
notes: IgG4 backbone
B18: 16H7 variant, light chain G24I (antibody, human IgG4 S228P, lambda, V domains shown)
VH: not shown
VL: B1 VL with G24I, I52D
notes: IgG4 backbone
B19: 16H7 variant, light chain G23K (antibody, human IgG4 S228P, lambda, V domains shown)
VH: not shown
VL: B1 VL with G23K, I52D
notes: IgG4 backbone
B20: 16H7 variant, light chain G23T (antibody, human IgG4 S228P, lambda, V domains shown)
VH: not shown
VL: B1 VL with G23T, I52D
notes: IgG4 backbone
B21: 16H7 variant, light chain D52N (antibody, human IgG4 S228P, lambda, V domains shown)
VH: not shown
VL: B1 VL with I52N
notes: IgG4 backbone
B22: 16H7 variant, light chain G23S (antibody, human IgG4 S228P, lambda, V domains shown)
VH: not shown
VL: B1 VL with G23S, I52D
notes: IgG4 backbone
B23: 16H7 variant, light chain G24A (antibody, human IgG4 S228P, lambda, V domains shown)
VH: not shown
VL: B1 VL with G24A, I52D
notes: IgG4 backbone
B24: 16H7 variant, light chain D52L (antibody, human IgG4 S228P, lambda, V domains shown)
VH: not shown
VL: B1 VL with I52L
notes: IgG4 backbone
B25: 16H7 variant, light chain G24S (antibody, human IgG4 S228P, lambda, V domains shown)
VH: not shown
VL: B1 VL with G24S, I52D
notes: IgG4 backbone
B26: 16H7 variant, light chain G23N (antibody, human IgG4 S228P, lambda, V domains shown)
VH: not shown
VL: B1 VL with G23N, I52D
notes: IgG4 backbone
B27: 16H7 variant, light chain G23H (antibody, human IgG4 S228P, lambda, V domains shown)
VH: not shown
VL: B1 VL with G23H, I52D
notes: IgG4 backbone
B28: 16H7 variant, light chain G23R (antibody, human IgG4 S228P, lambda, V domains shown)
VH: not shown
VL: B1 VL with G23R, I52D
notes: IgG4 backbone
B29: 16H7 variant, light chain G23I (antibody, human IgG4 S228P, lambda, V domains shown)
VH: not shown
VL: B1 VL with G23I, I52D
notes: IgG4 backbone
B30: 16H7 variant, light chain G24N (antibody, human IgG4 S228P, lambda, V domains shown)
VH: not shown
VL: B1 VL with G24N, I52D
notes: IgG4 backbone
B31: 16H7 variant, light chain D52R (antibody, human IgG4 S228P, lambda, V domains shown)
VH: not shown
VL: B1 VL with I52R
notes: IgG4 backbone
B32: 16H7 variant, light chain D52M (antibody, human IgG4 S228P, lambda, V domains shown)
VH: not shown
VL: B1 VL with I52M
notes: IgG4 backbone
B33: 16H7 variant, light chain G23M (antibody, human IgG4 S228P, lambda, V domains shown)
VH: not shown
VL: B1 VL with G23M, I52D
notes: IgG4 backbone
B34: 16H7 variant, light chain G24H (antibody, human IgG4 S228P, lambda, V domains shown)
VH: not shown
VL: B1 VL with G24H, I52D
notes: IgG4 backbone
B35: 16H7 variant, light chain G24M (antibody, human IgG4 S228P, lambda, V domains shown)
VH: not shown
VL: B1 VL with G24M, I52D
notes: IgG4 backbone
B36: 16H7 variant, light chain D52K (antibody, human IgG4 S228P, lambda, V domains shown)
VH: not shown
VL: B1 VL with I52K
notes: IgG4 backbone
B37: 16H7 variant, light chain G24E (antibody, human IgG4 S228P, lambda, V domains shown)
VH: not shown
VL: B1 VL with G24E, I52D
notes: IgG4 backbone
B38: 16H7 variant, light chain G23Y (antibody, human IgG4 S228P, lambda, V domains shown)
VH: not shown
VL: B1 VL with G23Y, I52D
notes: IgG4 backbone
B39: 16H7 variant, light chain D52S (antibody, human IgG4 S228P, lambda, V domains shown)
VH: not shown
VL: B1 VL with I52S
notes: IgG4 backbone

Experiments:
human beta-Klotho (KLB) = molecular target: T1, human beta-Klotho (KLB) (human, UniProt Q86Z14 53-997); assay: BLI off-rate screen (Octet), Ab captured via Fc;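 note: antibody supernatants applied at 25 µg/mL, dissociation monitored over 1800 s in D-PBS with 0.1% BSA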
T1 construct: also called human KLB
T1 sequence (looked up): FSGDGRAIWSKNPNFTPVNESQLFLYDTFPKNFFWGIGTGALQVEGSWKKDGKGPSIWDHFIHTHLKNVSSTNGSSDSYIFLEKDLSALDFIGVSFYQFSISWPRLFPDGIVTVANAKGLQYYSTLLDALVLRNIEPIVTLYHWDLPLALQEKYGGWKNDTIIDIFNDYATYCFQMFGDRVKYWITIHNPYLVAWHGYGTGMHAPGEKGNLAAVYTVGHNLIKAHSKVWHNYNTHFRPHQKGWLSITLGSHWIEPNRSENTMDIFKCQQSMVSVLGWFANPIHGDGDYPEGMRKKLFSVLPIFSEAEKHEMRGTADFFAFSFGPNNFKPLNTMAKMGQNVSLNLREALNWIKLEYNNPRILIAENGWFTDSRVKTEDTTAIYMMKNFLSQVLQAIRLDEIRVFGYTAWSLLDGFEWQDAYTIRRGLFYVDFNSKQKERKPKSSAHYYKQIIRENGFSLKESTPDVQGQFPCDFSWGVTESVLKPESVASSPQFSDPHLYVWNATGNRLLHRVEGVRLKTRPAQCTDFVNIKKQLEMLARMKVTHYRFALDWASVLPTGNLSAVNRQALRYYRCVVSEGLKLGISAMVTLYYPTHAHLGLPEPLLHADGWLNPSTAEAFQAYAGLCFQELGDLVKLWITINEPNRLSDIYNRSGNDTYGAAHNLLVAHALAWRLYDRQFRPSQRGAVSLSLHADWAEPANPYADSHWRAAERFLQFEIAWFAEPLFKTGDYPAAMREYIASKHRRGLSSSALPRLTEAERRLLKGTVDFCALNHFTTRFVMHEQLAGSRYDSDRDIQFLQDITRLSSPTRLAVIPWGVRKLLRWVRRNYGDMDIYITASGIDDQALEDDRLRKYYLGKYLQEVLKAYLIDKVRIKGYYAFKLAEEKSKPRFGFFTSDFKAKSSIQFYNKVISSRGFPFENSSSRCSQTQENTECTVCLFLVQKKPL

[1] = molecular target: human FGFR1c/KLB cell surface receptor complex on iLite FGF21 reporter cells (human, UniProt P11362 22-822; Q86Z14 1-1044); assay: cell-based or functional assay; for Mean E max (%): reference of the scale not given here
Sequence of human FGFR1c/KLB cell surface receptor complex on iLite FGF21 reporter cells (P11362 22-822, chain 1 of 2): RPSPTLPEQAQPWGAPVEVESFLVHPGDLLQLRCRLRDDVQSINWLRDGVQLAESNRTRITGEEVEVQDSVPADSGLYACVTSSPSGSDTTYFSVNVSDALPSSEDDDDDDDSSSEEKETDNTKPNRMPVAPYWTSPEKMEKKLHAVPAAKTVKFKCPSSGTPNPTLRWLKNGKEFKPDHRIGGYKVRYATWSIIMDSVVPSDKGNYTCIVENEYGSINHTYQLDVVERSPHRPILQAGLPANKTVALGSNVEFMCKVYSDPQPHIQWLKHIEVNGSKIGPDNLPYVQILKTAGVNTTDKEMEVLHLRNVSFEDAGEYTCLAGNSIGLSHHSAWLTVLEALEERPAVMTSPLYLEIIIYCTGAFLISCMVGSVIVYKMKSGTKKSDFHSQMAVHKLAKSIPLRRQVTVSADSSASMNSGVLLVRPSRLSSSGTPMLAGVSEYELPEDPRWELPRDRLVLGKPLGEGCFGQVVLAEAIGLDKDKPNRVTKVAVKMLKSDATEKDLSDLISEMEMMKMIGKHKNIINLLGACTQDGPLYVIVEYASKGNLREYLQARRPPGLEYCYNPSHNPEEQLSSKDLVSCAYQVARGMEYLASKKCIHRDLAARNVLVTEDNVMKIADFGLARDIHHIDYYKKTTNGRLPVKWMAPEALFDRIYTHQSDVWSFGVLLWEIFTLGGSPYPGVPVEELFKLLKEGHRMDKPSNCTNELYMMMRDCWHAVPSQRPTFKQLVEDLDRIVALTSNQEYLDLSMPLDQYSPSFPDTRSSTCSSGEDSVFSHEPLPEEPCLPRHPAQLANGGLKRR
Sequence of human FGFR1c/KLB cell surface receptor complex on iLite FGF21 reporter cells (Q86Z14 whole entry, chain 2 of 2): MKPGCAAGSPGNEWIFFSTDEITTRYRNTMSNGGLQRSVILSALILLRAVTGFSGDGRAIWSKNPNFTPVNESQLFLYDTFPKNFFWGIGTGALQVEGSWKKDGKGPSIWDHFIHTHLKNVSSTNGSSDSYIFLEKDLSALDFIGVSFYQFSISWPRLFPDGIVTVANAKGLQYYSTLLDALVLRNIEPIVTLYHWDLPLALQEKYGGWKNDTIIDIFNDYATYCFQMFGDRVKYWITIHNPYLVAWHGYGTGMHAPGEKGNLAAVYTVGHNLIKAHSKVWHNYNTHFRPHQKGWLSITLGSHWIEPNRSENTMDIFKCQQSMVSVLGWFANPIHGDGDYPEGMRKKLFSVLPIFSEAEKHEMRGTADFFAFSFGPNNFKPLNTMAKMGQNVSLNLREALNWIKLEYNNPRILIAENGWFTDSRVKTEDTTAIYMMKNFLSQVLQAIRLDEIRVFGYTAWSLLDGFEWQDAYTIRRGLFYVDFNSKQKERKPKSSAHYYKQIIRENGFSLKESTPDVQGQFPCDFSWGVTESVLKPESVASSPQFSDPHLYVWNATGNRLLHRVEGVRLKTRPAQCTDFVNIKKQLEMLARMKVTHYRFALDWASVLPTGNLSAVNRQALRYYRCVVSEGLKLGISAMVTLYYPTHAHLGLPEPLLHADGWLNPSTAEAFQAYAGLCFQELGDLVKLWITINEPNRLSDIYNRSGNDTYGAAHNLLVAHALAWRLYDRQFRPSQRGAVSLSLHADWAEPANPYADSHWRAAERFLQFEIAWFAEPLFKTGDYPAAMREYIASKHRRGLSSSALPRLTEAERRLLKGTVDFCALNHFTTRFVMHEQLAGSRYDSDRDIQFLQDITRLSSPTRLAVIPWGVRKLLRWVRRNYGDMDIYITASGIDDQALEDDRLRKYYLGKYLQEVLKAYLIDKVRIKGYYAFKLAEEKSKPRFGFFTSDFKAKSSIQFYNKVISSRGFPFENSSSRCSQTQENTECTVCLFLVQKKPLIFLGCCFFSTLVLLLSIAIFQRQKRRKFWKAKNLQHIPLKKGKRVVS

Row | Binder | koff (human beta-Klotho (KLB)) | Mean E max (%) [1] | Mean EC50 [1]
1 | B1 | 2.8e-05 s⁻¹ | 110% | 0.14 nM
2 | B2 | 1.5e-06 s⁻¹ | 98% | 0.106 nM
3 | B3 | 4.1e-05 s⁻¹ | 108% | 0.087 nM
4 | B4 | 3.8e-05 s⁻¹ | 101% | 0.117 nM
5 | B5 | 2.2e-05 s⁻¹ | 108% | 0.104 nM
6 | B6 | 3.9e-05 s⁻¹ | 102% | 0.143 nM
7 | B7 | 2.2e-05 s⁻¹ | 104% | 0.106 nM
8 | B8 | 1.8e-05 s⁻¹ | 100% | 0.109 nM
9 | B9 | 2.3e-05 s⁻¹ | 107% | 0.151 nM
10 | B10 | 5e-05 s⁻¹ | 98% | 0.109 nM
11 | B11 | 4e-05 s⁻¹ | 107% | 0.122 nM
12 | B12 | 9.1e-05 s⁻¹ | 102% | 0.11 nM
13 | B13 | 3.4e-05 s⁻¹ | 108% | 0.161 nM
14 | B14 | 9.1e-05 s⁻¹ | 106% | 0.131 nM
15 | B15 | 6.9e-05 s⁻¹ | 114% | 0.125 nM
16 | B16 | 2.7e-05 s⁻¹ | 101% | 0.107 nM
17 | B17 | 3.9e-05 s⁻¹ | 93% | 0.105 nM
18 | B18 | 2.7e-05 s⁻¹ | 109% | 0.143 nM
19 | B19 | 3.9e-05 s⁻¹ | 90% | 0.104 nM
20 | B20 | 1.5e-05 s⁻¹ | 112% | 0.105 nM

Row | Binder | koff (human beta-Klotho (KLB)) | Mean E max (%) [1] | Mean EC50 [1]
21 | B21 | 6.9e-07 s⁻¹ | 115% | 0.124 nM
22 | B22 | 1e-07 s⁻¹ | 120% | 0.143 nM
23 | B23 | 3.6e-05 s⁻¹ | 95% | 0.094 nM
24 | B24 | 5.7e-05 s⁻¹ | 106% | 0.107 nM
25 | B25 | 8.3e-06 s⁻¹ | 121% | 0.135 nM
26 | B26 | 2.7e-05 s⁻¹ | 100% | 0.138 nM
27 | B27 | 5.2e-06 s⁻¹ | 95% | 0.096 nM
28 | B28 | 3.1e-05 s⁻¹ | 103% | 0.135 nM
29 | B29 | 2.9e-05 s⁻¹ | 99% | 0.128 nM
30 | B30 | 1.7e-05 s⁻¹ | 103% | 0.114 nM
31 | B31 | 2.9e-05 s⁻¹ | 96% | 0.091 nM
32 | B32 | 2.4e-05 s⁻¹ | 105% | 0.144 nM
33 | B33 | 4.1e-05 s⁻¹ | 91% | 0.122 nM
34 | B34 | 2.7e-05 s⁻¹ | 99% | 0.125 nM
35 | B35 | 4.8e-05 s⁻¹ | 109% | 0.115 nM
36 | B36 | 9.2e-05 s⁻¹ | 101% | 0.117 nM
37 | B37 | 2.7e-05 s⁻¹ | 112% | 0.118 nM
38 | B38 | 4.2e-05 s⁻¹ | 107% | 0.124 nM
39 | B39 | 4e-05 s⁻¹ | 108% | 0.098 nM
